Experimental data: the Human Domainome abundance scans (Beltran et al. 2025)
± gives the uncertainty stated by the source.

B1: Nuclear receptor subfamily 1 group D member 2, residues 103 to 171; numbered along this chain, Q14995 (parent)
chain: CKVCGDVASGFHYGVHACEGCKGFFRRSIQQNIQYKKCLKNENCSIMRMNRNRCQQCRFKKCLSVGMSR

Variants of: B1
Test: abundance fitness (aPCA) (normalised: wild type 0, dead -1); higher = more abundant; growth selection in yeast, the domain comes from the species named
Conditions: Homo sapiens
Variant CKVCGDVASGFHYGVHACEGCKGFFRRSIQQNIQYKKCLKNENCSIMRMNRNRCQQCRFKKGLSVGMSR has an abundance fitness of -0.857 ± 0.19.
In the case of CKVCGDVASGFHYGVHACEGCKGFFRRSIQQNIQYKKCLKNENCSIMRMNRNRCQQCRFKKSLSVGMSR, the abundance fitness is reported as -0.757 ± 0.16.
CKVCGDVASGFHYGVHACEGCKGFFRRSIQQNIQYKKCLKNENCSIMRMNRNRCQQCRFKKVLSVGMSR gave an abundance fitness of -0.665 ± 0.23.
With CKVCGDVASGFHYGVHACEGCKGFFRRSIQQNIQYKKCLKNENCSIMRMNRNRCQQCRFKKYLSVGMSR the abundance fitness was -0.492 ± 0.31.
CKVCGDVASGFHYGVHACEGCKGFFRRSIQQNIQYKKCLKNENCSIMRMNRNRCQQCRFKKELSVGMSR showed an abundance fitness of -0.456 ± 0.27.
Variant CKVCGDVASGFHYGVHACEGCKGFFRRSIQQNIQYKKCLKNENCSIMRMNRNRCQQCRFKKNLSVGMSR has an abundance fitness of -0.812 ± 0.45.
For CKVCGDVASGFHYGVHACEGCKGFFRRSIQQNIQYKKCLKNENCSIMRMNRNRCQQCRFKKTLSVGMSR, the abundance fitness was -0.948 ± 0.27.
For CKVCGDVASGFHYGVHACEGCKGFFRRSIQQNIQYKKCLKNENCSIMRMNRNRCQQCRFKKALSVGMSR, the abundance fitness was -0.015 ± 0.2.
Variant CKVCGDVASGFHYGVHACEGCKGFFRRSIQQNIQYKKCLKNENCSIMRMNRNRCQQCRFKKLLSVGMSR has an abundance fitness of -0.875 ± 0.24.
Variant CKVCGDVASGFHYGVHACEGCKGFFRRSIQQNIQYKKCLKNENCSIMRMNRNRCQQCRFKKMLSVGMSR has an abundance fitness of -0.336 ± 0.17.
For CKVCGDVASGFHYGVHACEGCKGFFRRSIQQNIQYKKCLKNENCSIMRMNRNRCQQCRFKKPLSVGMSR, the abundance fitness was -0.843 ± 0.38.
CKVCGDVASGFHYGVHACEGCKGFFRRSIQQNIQYKKCLKNENCSIMRMNRNRCQQCRFKKRLSVGMSR gave an abundance fitness of -0.667 ± 0.19.
Variant CKVCGDVASGFHYGVHACEGCKGFFRRSIQQNIQYKKCLKNENCSIMRMNRNRCQQCRFKKCLYVGMSR has an abundance fitness of -0.512 ± 0.14.
CKVCGDVASGFHYGVHACEGCKGFFRRSIQQNIQYKKCLKNENCSIMRMNRNRCQQCRFKKCLNVGMSR showed an abundance fitness of -0.36 ± 0.14.
For CKVCGDVASGFHYGVHACEGCKGFFRRSIQQNIQYKKCLKNENCSIMRMNRNRCQQCRFKKCLEVGMSR, the abundance fitness was 0.346 ± 0.11.
With CKVCGDVASGFHYGVHACEGCKGFFRRSIQQNIQYKKCLKNENCSIMRMNRNRCQQCRFKKCLFVGMSR the abundance fitness was -0.545 ± 0.15.
With CKVCGDVASGFHYGVHACEGCKGFFRRSIQQNIQYKKCLKNENCSIMRMNRNRCQQCRFKKCLMVGMSR the abundance fitness was -0.072 ± 0.11.
With CKVCGDVASGFHYGVHACEGCKGFFRRSIQQNIQYKKCLKNENCSIMRMNRNRCQQCRFKKCLTVGMSR the abundance fitness was -0.002 ± 0.094.
Variant CKVCGDVASGFHYGVHACEGCKGFFRRSIQQNIQYKKCLKNENCSIMRMNRNRCQQCRFKKCLCVGMSR has an abundance fitness of -0.469 ± 0.38.
Work on CKVCGDVASGFHYGVHACEGCKGFFRRSIQQNIQYKKCLKNENCSIMRMNRNRCQQCRFKKCLKVGMSR yielded an abundance fitness of 0.236 ± 0.095.
Work on CKVCGDVASGFHYGVHACEGCKGFFRRSIQQNIQYKKCLKNENCSIMRMNRNRCQQCRFKKCLQVGMSR yielded an abundance fitness of 0.12 ± 0.089.
In the case of CKVCGDVASGFHYGVHACEGCKGFFRRSIQQNIQYKKCLKNENCSIMRMNRNRCQQCRFKKCLPVGMSR, the abundance fitness is reported as -0.857 ± 0.19.
For CKVCGDVASGFHYGVHACEGCKGFFRRSIQQNIQYKKCLKNENCSIMRMNRNRCQQCRFKKCLLVGMSR, the abundance fitness was 0.044 ± 0.064.
With CKVCGDVASGFHYGVHACEGCKGFFRRSIQQNIQYKKCLKNENCSIMRMNRNRCQQCRFKKCLHVGMSR the abundance fitness was -0.449 ± 0.19.
CKVCGDVASGFHYGVHACEGCKGFFRRSIQQNIQYKKCLKNENCSIMRMNRNRCQQCRFKKCLIVGMSR gave an abundance fitness of -0.911 ± 0.35.
CKVCGDVASGFHYGVHACEGCKGFFRRSIQQNIQYKKCLKNENCSIMRMNRNRCQQCRFKKCLRVGMSR gave an abundance fitness of -0.334 ± 0.1.
CKVCGDVASGFHYGVHACEGCKGFFRRSIQQNIQYKKCLKNENCSIMRMNRNRCQQCRFKKCLVVGMSR showed an abundance fitness of -0.107 ± 0.09.
For CKVCGDVASGFHYGVHACEGCKGFFRRSIQQNIQYKKCLKNENCSIMRMNRNRCQQCRFKKCLGVGMSR, the abundance fitness was -0.481 ± 0.13.
CKVCGDVASGFHYGVHACEGCKGFFRRSIQQNIQYKKCLKNENCSIMRMNRNRCQQCRFKKCLDVGMSR gave an abundance fitness of -0.051 ± 0.1.
CKVCGDVASGFHYGVHACEGCKGFFRRSIQQNIQYKKCLKNENCSIMRMNRNRCQQCRFKKCLAVGMSR showed an abundance fitness of -0.048 ± 0.1.
CKVCGDVASGFHYGVHACEGCKGFFRRSIQQNIQYKKCLKNENCSIMRMNRNRCQQCRFKKCMSVGMSR showed an abundance fitness of -0.914 ± 0.33.
CKVCGDVASGFHYGVHACEGCKGFFRRSIQQNIQYKKCLKNENCSIMRMNRNRCQQCRFKKCTSVGMSR gave an abundance fitness of -0.523 ± 0.47.
CKVCGDVASGFHYGVHACEGCKGFFRRSIQQNIQYKKCLKNENCSIMRMNRNRCQQCRFKKCNSVGMSR showed an abundance fitness of -0.911 ± 0.47.
Variant CKVCGDVASGFHYGVHACEGCKGFFRRSIQQNIQYKKCLKNENCSIMRMNRNRCQQCRFKKCPSVGMSR has an abundance fitness of -0.789 ± 0.33.
CKVCGDVASGFHYGVHACEGCKGFFRRSIQQNIQYKKCLKNENCSIMRMNRNRCQQCRFKKCKSVGMSR showed an abundance fitness of -0.8 ± 0.28.
For CKVCGDVASGFHYGVHACEGCKGFFRRSIQQNIQYKKCLKNENCSIMRMNRNRCQQCRFKKCASVGMSR, the abundance fitness was -0.071 ± 0.26.
Variant CKVCGDVASGFHYGVHACEGCKGFFRRSIQQNIQYKKCLKNENCSIMRMNRNRCQQCRFKKCRSVGMSR has an abundance fitness of -0.991 ± 0.25.
Variant CKVCGDVASGFHYGVHACEGCKGFFRRSIQQNIQYKKCLKNENCSIMRMNRNRCQQCRFKKCGSVGMSR has an abundance fitness of -0.92 ± 0.24.
With CKVCGDVASGFHYGVHACEGCKGFFRRSIQQNIQYKKCLKNENCSIMRMNRNRCQQCRFKKCESVGMSR the abundance fitness was -0.121 ± 0.15.
